Our source for the pKd values is publication PMC9482650, “Quantitative fragmentomics allow affinity mapping of interactomes” (Nature Communications, 2022).

Some targets named below: DLG1_1, Q12959; DLG1_3, Q12959; DLG4_1, P78352; Inadl_3, Q8NI35; Inadl_4, Q8NI35; Inadl_9, Q8NI35; MAGI1_2, Q96QZ7; MAGI2_5, Q86UL8.
Common to all, as to test: holdup assay
Design in all cases: key: below the threshold = too weak to quantify, mostly under pKd 3.1 to 4

Another test deals with T1, APBA1_1, Q02410.
T1 sequence (Q02410 651-752, limits assumed, looked up): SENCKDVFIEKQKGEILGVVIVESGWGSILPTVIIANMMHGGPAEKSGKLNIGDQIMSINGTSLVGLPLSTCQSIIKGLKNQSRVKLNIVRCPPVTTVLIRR

The next test has as its target T2, APBA2_1, Q99767.
T2 sequence (Q99767 563-664, limits assumed, looked up): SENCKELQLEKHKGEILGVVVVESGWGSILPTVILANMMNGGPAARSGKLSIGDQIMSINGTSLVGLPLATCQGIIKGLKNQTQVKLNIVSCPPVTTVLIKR

Another test has as its target T3, APBA2_2, Q99767.
T3 sequence (Q99767 654-744, limits assumed, looked up): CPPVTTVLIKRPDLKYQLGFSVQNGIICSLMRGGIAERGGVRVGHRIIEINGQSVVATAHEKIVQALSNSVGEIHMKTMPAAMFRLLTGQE

A further test concerns the target T4, DFNB31_3, Q9P202.
T4 sequence (Q9P202 811-907, limits assumed, looked up): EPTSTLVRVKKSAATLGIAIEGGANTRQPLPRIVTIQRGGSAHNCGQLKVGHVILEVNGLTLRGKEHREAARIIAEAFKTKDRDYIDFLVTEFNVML

For a further test, the target named is T5, GRIP1_2, Q9Y3R0.
T5 sequence (Q9Y3R0 145-248, limits assumed, looked up): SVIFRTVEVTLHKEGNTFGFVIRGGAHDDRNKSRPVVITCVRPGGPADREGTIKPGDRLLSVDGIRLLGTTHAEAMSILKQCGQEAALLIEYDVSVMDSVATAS

The next test concerns the target T6, GRIP1_3, Q9Y3R0.
T6 sequence (Q9Y3R0 247-346, limits assumed, looked up): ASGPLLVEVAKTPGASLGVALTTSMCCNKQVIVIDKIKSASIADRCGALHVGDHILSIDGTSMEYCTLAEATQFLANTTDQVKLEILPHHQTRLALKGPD

The next test deals with T7, HTRA4, P83105.
T7 sequence (P83105 378-476, limits assumed, looked up): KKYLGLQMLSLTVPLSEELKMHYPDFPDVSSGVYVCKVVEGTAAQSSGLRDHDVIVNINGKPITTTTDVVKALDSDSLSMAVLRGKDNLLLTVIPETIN

A further test concerns the target T8, LIN7C, Q9NUP9.
T8 sequence (Q9NUP9 88-185, limits assumed, looked up): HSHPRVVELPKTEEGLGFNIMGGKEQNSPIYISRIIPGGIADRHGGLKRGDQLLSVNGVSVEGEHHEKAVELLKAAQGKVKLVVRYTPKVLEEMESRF

For another test, the target named is T9, PDZD7_3, Q9H5P4.
T9 sequence (Q9H5P4 857-944, limits assumed, looked up): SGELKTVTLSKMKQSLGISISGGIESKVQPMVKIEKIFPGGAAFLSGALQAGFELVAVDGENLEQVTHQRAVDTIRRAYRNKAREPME

The target in another test is T10, RAPGEF6, Q8TEU7.
T10 sequence (Q8TEU7 525-625, limits assumed, looked up): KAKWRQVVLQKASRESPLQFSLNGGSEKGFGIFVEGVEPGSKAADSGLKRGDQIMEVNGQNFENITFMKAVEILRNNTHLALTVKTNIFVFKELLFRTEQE

The target of another test is T11, SNTA1, Q13424.
T11 sequence (Q13424 82-180, limits assumed, looked up): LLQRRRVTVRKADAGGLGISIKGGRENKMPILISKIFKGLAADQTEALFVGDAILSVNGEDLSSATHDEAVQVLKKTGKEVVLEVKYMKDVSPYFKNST

A further test addresses T12, SYNJ2BP, P57105.
T12 sequence (P57105 8-110, limits assumed, looked up): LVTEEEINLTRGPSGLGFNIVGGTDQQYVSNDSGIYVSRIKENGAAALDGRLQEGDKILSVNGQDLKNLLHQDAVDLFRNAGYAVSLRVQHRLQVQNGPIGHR

The next test has as its target T13, TIAM2, Q8IVF5.
T13 sequence (Q8IVF5 885-986, limits assumed, looked up): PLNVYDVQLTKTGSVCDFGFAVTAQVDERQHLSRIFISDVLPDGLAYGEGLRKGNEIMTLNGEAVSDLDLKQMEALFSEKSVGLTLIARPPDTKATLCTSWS

For the next test, the target named is T14, TX1BP3, O14907.
T14 sequence (O14907 10-122, limits assumed, looked up): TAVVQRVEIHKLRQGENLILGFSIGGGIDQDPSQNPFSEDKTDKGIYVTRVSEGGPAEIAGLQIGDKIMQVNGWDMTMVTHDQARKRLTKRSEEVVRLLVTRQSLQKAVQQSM

Setting [1] is: plain residues with an end cap or a label only (N-terminal biotin on a linker: ttds).
The mark [2] stands for this setting: plain residues with an end cap or a label only (N-terminal biotin on a linker: ado-ado).

Sequence of Inadl_4, Q8NI35 (Q8NI35 547-651): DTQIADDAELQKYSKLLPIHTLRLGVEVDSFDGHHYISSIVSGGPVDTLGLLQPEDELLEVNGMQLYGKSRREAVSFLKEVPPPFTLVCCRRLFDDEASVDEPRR
Sequence of DLG4_1, P78352 (P78352 62-152): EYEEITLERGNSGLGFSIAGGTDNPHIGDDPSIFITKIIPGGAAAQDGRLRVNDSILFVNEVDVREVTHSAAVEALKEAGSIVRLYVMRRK
Sequence of Inadl_9, Q8NI35 (Q8NI35 1530-1615): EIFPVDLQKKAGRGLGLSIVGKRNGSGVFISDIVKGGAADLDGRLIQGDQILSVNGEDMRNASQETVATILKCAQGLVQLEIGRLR
Sequence of Inadl_3, Q8NI35 (Q8NI35 359-469): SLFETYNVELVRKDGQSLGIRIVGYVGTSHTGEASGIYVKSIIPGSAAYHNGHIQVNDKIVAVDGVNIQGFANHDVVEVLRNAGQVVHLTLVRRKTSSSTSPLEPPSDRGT
Sequence of MAGI1_2, Q96QZ7 (Q96QZ7 456-580): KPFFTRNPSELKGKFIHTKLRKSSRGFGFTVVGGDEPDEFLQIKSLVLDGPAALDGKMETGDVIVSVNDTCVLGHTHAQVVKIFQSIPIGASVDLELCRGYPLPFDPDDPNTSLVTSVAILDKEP
Sequence of MAGI2_5, Q86UL8 (Q86UL8 915-1017): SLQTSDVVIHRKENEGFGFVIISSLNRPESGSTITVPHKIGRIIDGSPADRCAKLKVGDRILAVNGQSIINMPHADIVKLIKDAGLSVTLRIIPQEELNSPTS

For QFQYAKESYI [TAGAP, Q8N103], the pKd (commonly −log10 of the Kd, conventionally taken in molar units) is “below the threshold” with APBA1_1, Q02410 (setting [1]); “below the threshold” in the test with APBA2_1, Q99767 (setting [1]); “below the threshold” with APBA2_2, Q99767 (setting [1]); “below the threshold” with DFNB31_3, Q9P202 (setting [1]); 4.16 with DLG1_1, Q12959 (setting [1]); 4.05 with DLG1_3, Q12959 (setting [1]). Also, the pKd is 3.9 with DLG4_1, P78352 (setting [1]); “below the threshold” with GRIP1_2, Q9Y3R0 (setting [1]); “below the threshold” with GRIP1_3, Q9Y3R0 (setting [1]); “below the threshold” in the test with HTRA4, P83105 (setting [1]); “below the threshold” with Inadl_3, Q8NI35 (setting [1]); “below the threshold” with Inadl_4, Q8NI35 (setting [1]). In addition, the pKd with Inadl_9, Q8NI35 (setting [1]) was 3.5; in the test with LIN7C, Q9NUP9 (setting [1]) it was 4.21; with MAGI1_2, Q96QZ7 (setting [1]) it was “below the threshold”; in the test with MAGI2_5, Q86UL8 (setting [1]), “below the threshold”; with PDZD7_3, Q9H5P4 (setting [1]), 4.87; in the test with RAPGEF6, Q8TEU7 (setting [1]), “below the threshold”. Further, the pKd with SNTA1, Q13424 (setting [1]) is 4.97; in the test with SYNJ2BP, P57105 (setting [1]), 4.71; with TIAM2, Q8IVF5 (setting [1]), “below the threshold”; with TX1BP3, O14907 (setting [1]), 4.13.
For FVHPILQSAV [PRKCA, P17252], the pKd result with APBA1_1, Q02410 (setting [2]) is “below the threshold”; in the test with APBA2_1, Q99767 (setting [2]), “below the threshold”; in the test with APBA2_2, Q99767 (setting [2]) it was “below the threshold”; with DFNB31_3, Q9P202 (setting [2]), 3.57; with DLG1_1, Q12959 (setting [2]), 3.81; with DLG1_3, Q12959 (setting [2]), 3.85. Moreover, the pKd in the test with DLG4_1, P78352 (setting [2]) was 4.07; with GRIP1_2, Q9Y3R0 (setting [2]), “below the threshold”; with GRIP1_3, Q9Y3R0 (setting [2]), “below the threshold”; with HTRA4, P83105 (setting [2]), “below the threshold”; with Inadl_3, Q8NI35 (setting [2]) it was “below the threshold”; with Inadl_4, Q8NI35 (setting [2]), “below the threshold”. Moreover, the pKd entry with Inadl_9, Q8NI35 (setting [2]) was “below the threshold”; with LIN7C, Q9NUP9 (setting [2]) it was 3.52; with MAGI1_2, Q96QZ7 (setting [2]) it was 3.73; in the test with MAGI2_5, Q86UL8 (setting [2]) it was 4.73; in the test with PDZD7_3, Q9H5P4 (setting [2]), 4.55; with RAPGEF6, Q8TEU7 (setting [2]) it was “below the threshold”. The pKd in the test with SNTA1, Q13424 (setting [2]) was 3.91; with SYNJ2BP, P57105 (setting [2]) it was 5.31; in the test with TIAM2, Q8IVF5 (setting [2]), “below the threshold”; with TX1BP3, O14907 (setting [2]), 5.09.
For the molecule SRRPRTETQV [HPV31-E6, P17386], the pKd entry is “below the threshold” with APBA1_1, Q02410 (setting [1]); “below the threshold” with APBA2_1, Q99767 (setting [1]); “below the threshold” in the test with APBA2_2, Q99767 (setting [1]); “below the threshold” with DFNB31_3, Q9P202 (setting [1]); 5.16 with DLG1_1, Q12959 (setting [1]); 4.6 with DLG1_3, Q12959 (setting [1]). In addition, the negative logarithm of the Kd (pKd) was 5.02 with DLG4_1, P78352 (setting [1]); “below the threshold” with GRIP1_2, Q9Y3R0 (setting [1]); “below the threshold” with GRIP1_3, Q9Y3R0 (setting [1]); “below the threshold” with HTRA4, P83105 (setting [1]); “below the threshold” with Inadl_3, Q8NI35 (setting [1]); “below the threshold” with Inadl_4, Q8NI35 (setting [1]). Moreover, the pKd entry with Inadl_9, Q8NI35 (setting [1]) was “below the threshold”; in the test with LIN7C, Q9NUP9 (setting [1]), 3.93; with MAGI1_2, Q96QZ7 (setting [1]), 5.54; with MAGI2_5, Q86UL8 (setting [1]) it was 3.89; with PDZD7_3, Q9H5P4 (setting [1]), 3.71; in the test with RAPGEF6, Q8TEU7 (setting [1]), “below the threshold”. For the same molecule, the pKd was 4.29 with SNTA1, Q13424 (setting [1]); 5.41 with SYNJ2BP, P57105 (setting [1]); “below the threshold” in the test with TIAM2, Q8IVF5 (setting [1]); 4.61 with TX1BP3, O14907 (setting [1]).
